Measured values taken from US20260242478A1 (published 2026).
Where no end group is shown, it is not given here.

Columns and labels:
PSMA Fab (006 PSMA Fab) [1] = biological target: T1, PSMA Fab (006 PSMA Fab); experiment: clonal phage ELISA; biotinylated PSMA Fab on neutravidin plate, blocking buffer alone, anti-M13-HRP detection;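 note: crude clonal phage supernatants added without washing to wells preincubated with PSMA antigen or with blocking buffer alone, briefly incubated, then washed before bound phage detection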
T1 construct: also called Anti-PSMA Fab; anti-PSMA Fab
Procedure: (§1) Clonal phage were harvested as crude supernatants and screened via standard ELISAs. […] Prior to the addition of clonal phage. wells were incubated with blocking buffer and PSMA antigen or blocking buffer alone. Without washing or aspirating, clonal phage supernatants were then added to the wells and incubated for a short time. Wells were then washed followed by detection of bound phage using a horse radish conjugated anti-M13 antibody.

PSMA Fab (006 PSMA Fab) [2] = biological target: T1, PSMA Fab (006 PSMA Fab); experiment: clonal phage ELISA; biotinylated PSMA Fab on neutravidin plate, wells pre-incubated with PSMA antigen (competitor), anti-M13-HRP detection
Procedure: as §1

006 PSMA Fab [3] = biological target: T2, 006 PSMA Fab; experiment: phage binding ELISA; biotinylated PSMA Fab on neutravidin plate, clonal phage supernatant, anti-M13 HRP detection; blocking buffer alone;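 note: before phage were added, wells were preincubated with blocking buffer either containing PSMA antigen or without it, and phage were then added with no wash in between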
T2 construct: also called Anti-PSMA Fab
Procedure: as §1

006 PSMA Fab [4] = biological target: T2, 006 PSMA Fab; experiment: phage binding ELISA; biotinylated PSMA Fab on neutravidin plate pre-incubated with PSMA antigen as competitor, clonal phage supernatant, anti-M13 HRP detection
Procedure: as §1

PSMA Fab (006 PSMA Fab) [5] = biological target: T3, PSMA Fab (006 PSMA Fab) (biotinylated (site not given)); experiment: clonal phage ELISA; biotinylated PSMA Fab on neutravidin plate, blocking buffer alone; anti-M13 HRP detection;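 note: crude clonal phage supernatants added without washing to wells pretreated with blocking buffer with or without PSMA antigen, short incubation, then washed before detecting bound phage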
T3 construct: also called Anti-PSMA Fab; anti-PSMA Fab

B1: Phage-2711 (peptide)
peptide: NVSMCIPNWMCVGL
modifications: cysteine pairing not given here; also: displayed on bacteriophage as fusion to pIII, linker not given here
Phage binding ELISA signal, Anti-PSMA Fab (PSMA Fab (006 PSMA Fab) [1]): 0.791 | Phage binding ELISA signal, Anti-PSMA Fab in presence of PSMA antigen (PSMA Fab (006 PSMA Fab) [2]): 0.0891

B2: Phage-2695 (peptide)
peptide: HWRMCVPTWMCHLD
modifications: cysteine pairing not given here; also: displayed on bacteriophage as fusion to pIII
Phage binding ELISA signal, Anti-PSMA Fab (006 PSMA Fab [3]): 0.83 | Phage binding ELISA signal, Anti-PSMA Fab with PSMA antigen (006 PSMA Fab [4]): 0.15

B3: Phage-2709 (peptide)
peptide: PDNWCIPAWMCERF
Phage binding ELISA signal, Anti-PSMA Fab (006 PSMA Fab [3]): 0.793 | Phage binding ELISA signal, Anti-PSMA Fab with PSMA antigen (006 PSMA Fab [4]): 0.0679

B4: Phage-2703 (peptide)
peptide: TIKWCTPSWMCAEI
modifications: cysteine pairing not given here; also: displayed on bacteriophage as fusion to pIII
Phage binding ELISA signal, Anti-PSMA Fab (006 PSMA Fab [3]): 0.811 | Phage binding ELISA signal, Anti-PSMA Fab with PSMA antigen (006 PSMA Fab [4]): 0.105

B5: Phage-2705 (peptide)
peptide: EQMWCTPAWMCTGF
Phage binding ELISA signal, Anti-PSMA Fab (006 PSMA Fab [3]): 0.81 | Phage binding ELISA signal, Anti-PSMA Fab with PSMA antigen (006 PSMA Fab [4]): 0.0782

B6: Phage-2713 (peptide)
peptide: NTHWCTPSWMCSAW
modifications: cysteine pairing not given here; also: displayed on bacteriophage as fusion to pIII, linker not given here
Phage binding ELISA signal, Anti-PSMA Fab (PSMA Fab (006 PSMA Fab) [1]): 0.789 | Phage binding ELISA signal, Anti-PSMA Fab in presence of PSMA antigen (PSMA Fab (006 PSMA Fab) [2]): 0.0816

B7: Phage-2716 (peptide)
peptide: VANWCTPKWMCEHV
modifications: cysteine pairing not given here; also: displayed on bacteriophage as fusion to pIII, linker not given here
Phage binding ELISA signal, Anti-PSMA Fab (PSMA Fab (006 PSMA Fab) [1]): 0.777 | Phage binding ELISA signal, Anti-PSMA Fab in presence of PSMA antigen (PSMA Fab (006 PSMA Fab) [2]): 0.0631

B8: Phage-2697 (peptide)
peptide: FVKWCTPSWMCESQ
Phage binding ELISA signal, Anti-PSMA Fab (006 PSMA Fab [3]): 0.828 | Phage binding ELISA signal, Anti-PSMA Fab with PSMA antigen (006 PSMA Fab [4]): 0.0785

B9: Phage-2692 (peptide)
peptide: MEKWCIPQWMCEQF
modifications: cysteine pairing not given here; also: displayed on bacteriophage as fusion to pIII, fusion and linker not given here
notes: Tested as clonal phage supernatant; also called Peptide-180 library clone
Phage binding ELISA signal, Anti-PSMA Fab (PSMA Fab (006 PSMA Fab) [5]): 0.834

B10: Phage-2715 (peptide)
peptide: VYKWCTPSWMCADP
modifications: cysteine pairing not given here; also: displayed on bacteriophage as fusion to pIII, linker not given here
Phage binding ELISA signal, Anti-PSMA Fab (PSMA Fab (006 PSMA Fab) [1]): 0.779 | Phage binding ELISA signal, Anti-PSMA Fab in presence of PSMA antigen (PSMA Fab (006 PSMA Fab) [2]): 0.0676

B11: Phage-2706 (peptide)
peptide: DYKWCTPPWMCYSA
Phage binding ELISA signal, Anti-PSMA Fab (006 PSMA Fab [3]): 0.804 | Phage binding ELISA signal, Anti-PSMA Fab with PSMA antigen (006 PSMA Fab [4]): 0.0621

B12: Phage-2702 (peptide)
peptide: QVPWCTPAWMCERA
Phage binding ELISA signal, Anti-PSMA Fab (006 PSMA Fab [3]): 0.814 | Phage binding ELISA signal, Anti-PSMA Fab with PSMA antigen (006 PSMA Fab [4]): 0.126

B13: Phage-2691 (peptide)
peptide: IVKWCTPPWMCERP
modifications: cysteine pairing not given here; also: displayed on bacteriophage as fusion to pIII, fusion and linker not given here
notes: as for B9
Phage binding ELISA signal, Anti-PSMA Fab (PSMA Fab (006 PSMA Fab) [5]): 0.834

B14: Phage-2708 (peptide)
peptide: MDRWCTPAWMCEVH
Phage binding ELISA signal, Anti-PSMA Fab (006 PSMA Fab [3]): 0.794 | Phage binding ELISA signal, Anti-PSMA Fab with PSMA antigen (006 PSMA Fab [4]): 0.0734

B15: Phage-2701 (peptide)
peptide: DNMLCRPSWMCEGL
Phage binding ELISA signal, Anti-PSMA Fab (006 PSMA Fab [3]): 0.816 | Phage binding ELISA signal, Anti-PSMA Fab with PSMA antigen (006 PSMA Fab [4]): 0.0762

B16: Phage-2698 (peptide)
peptide: DNKMCIPVWMCERF
Phage binding ELISA signal, Anti-PSMA Fab (006 PSMA Fab [3]): 0.824 | Phage binding ELISA signal, Anti-PSMA Fab with PSMA antigen (006 PSMA Fab [4]): 0.0685

B17: Phage-2694 (peptide)
peptide: GEKWCTPLWMCEWY
modifications: cysteine pairing not given here; also: displayed on bacteriophage as fusion to pIII, fusion and linker not given here
notes: as for B9
Phage binding ELISA signal, Anti-PSMA Fab (PSMA Fab (006 PSMA Fab) [5]): 0.832

B18: Phage-2714 (peptide)
peptide: HEKWCVPSWMCDDW
modifications: cysteine pairing not given here; also: displayed on bacteriophage as fusion to pIII, linker not given here
Phage binding ELISA signal, Anti-PSMA Fab (PSMA Fab (006 PSMA Fab) [1]): 0.784 | Phage binding ELISA signal, Anti-PSMA Fab in presence of PSMA antigen (PSMA Fab (006 PSMA Fab) [2]): 0.0669

B19: Phage-2707 (peptide)
peptide: DHKWCTPPWMCAAD
modifications: cysteine pairing not given here; also: displayed on bacteriophage as fusion to pIII
Phage binding ELISA signal, Anti-PSMA Fab (006 PSMA Fab [3]): 0.797 | Phage binding ELISA signal, Anti-PSMA Fab with PSMA antigen (006 PSMA Fab [4]): 0.0877

B20: Phage-2693 (peptide)
peptide: MGNWCTPSWMCEGL
modifications: cysteine pairing not given here; also: displayed on bacteriophage as fusion to pIII, fusion and linker not given here
notes: as for B9
Phage binding ELISA signal, Anti-PSMA Fab (PSMA Fab (006 PSMA Fab) [5]): 0.833

B21: Phage-2696 (peptide)
peptide: EEMWCIPVWMCEHQ
Phage binding ELISA signal, Anti-PSMA Fab (006 PSMA Fab [3]): 0.829 | Phage binding ELISA signal, Anti-PSMA Fab with PSMA antigen (006 PSMA Fab [4]): 0.0935

B22: Phage-2712 (peptide)
peptide: WENWCRPSWMCEDT
modifications: cysteine pairing not given here; also: displayed on bacteriophage as fusion to pIII, linker not given here
Phage binding ELISA signal, Anti-PSMA Fab (PSMA Fab (006 PSMA Fab) [1]): 0.79 | Phage binding ELISA signal, Anti-PSMA Fab in presence of PSMA antigen (PSMA Fab (006 PSMA Fab) [2]): 0.0568

B23: Phage-2699 (peptide)
peptide: GSHWCEPLWMCSAF
Phage binding ELISA signal, Anti-PSMA Fab (006 PSMA Fab [3]): 0.824 | Phage binding ELISA signal, Anti-PSMA Fab with PSMA antigen (006 PSMA Fab [4]): 0.0853

B24: Phage-2700 (peptide)
peptide: IEKWCTPPWMCESS
Phage binding ELISA signal, Anti-PSMA Fab (006 PSMA Fab [3]): 0.824 | Phage binding ELISA signal, Anti-PSMA Fab with PSMA antigen (006 PSMA Fab [4]): 0.104

B25: Phage-2710 (peptide)
peptide: SVKWCTPPWMCTGL
modifications: cysteine pairing not given here; also: displayed on bacteriophage as fusion to pIII, linker not given here
Phage binding ELISA signal, Anti-PSMA Fab (PSMA Fab (006 PSMA Fab) [1]): 0.792 | Phage binding ELISA signal, Anti-PSMA Fab in presence of PSMA antigen (PSMA Fab (006 PSMA Fab) [2]): 0.0767

B26: Phage-2704 (peptide)
peptide: VGNWCIPLWMCAAE
modifications: cysteine pairing not given here; also: displayed on bacteriophage as fusion to pIII
Phage binding ELISA signal, Anti-PSMA Fab (006 PSMA Fab [3]): 0.81 | Phage binding ELISA signal, Anti-PSMA Fab with PSMA antigen (006 PSMA Fab [4]): 0.0867
